Test results reported in publication PMC11681868 (2024).
Where no end group is shown, it is not given here. [ ]: non-standard residue; d: D form. pS = N[C@@H](COP(=O)(O)O)C(=O)O

Assays:
G11 = assay: ITC
A3 = assay: ITC

Kd (G11): 18.1 nM
Kd (A3): 31.8 nM
B1: phosphorylated Akt peptide (peptide)
peptide: RPHFPQF[pS]YSAS
